Results on 130 substances are retold here after the supplement of paper PMC12042874.

± gives the uncertainty stated by the source.

This series is described as follows: amyloid nucleation score (Sup35N fusion, yeast selection) (log enrichment); library NNK3; higher = more nucleation; inactive = no reads after selection. In a few lines: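 Three technical output replicates were used for random libraries. Psi-negative yeast expressing peptides of 20 random codons fused to Sup35N were induced with 100 μM copper sulfate for 24 hours and grown 7 days at 30°C on medium lacking adenine and uracil, and input and output plasmid inserts were Illumina-sequenced, excluding sequences with under 100 input reads. The nucleation score is the DiMSum log enrichment of output over input reads, centred on the mode score of non-aggregating sequences.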
Consider GVVSMVYINKWTRFWVPRPS, for which the amyloid nucleation score result was “inactive”.
Turning to GVYHIQPCMRCRLHKGGSDS, the amyloid nucleation score result was “inactive”.
With GVYPSGCYLNVRFWSLVHGA, the amyloid nucleation score result was “inactive”.
As for GWFSYSRMSNCSLNSTK, the entry is “inactive”; as for GWNVWQGMNKNFGTYFSR, “inactive”; as for GWSQYGACRVGVWGYRAPYN, “inactive”.
Consider GWVYWVSMRVIPNRIVINDP, for which the amyloid nucleation score entry is “inactive”.
To GYDLFCGILMVDNSASIHTP belongs 2.84 ± 0.063; to GYFSLPIGGVVRTGVMLDE, “inactive”; to GYGCVTKV, “inactive”.
Turning to GYKFWCSVFLVWLILHVRQS, the amyloid nucleation score result is “inactive”.
To GYMWGLEDNFALWTGRNNYV belongs “inactive”.
Take GYNVKGNP: the amyloid nucleation score entry is “inactive”.
For the substance GYRYIVDLG, the amyloid nucleation score entry is “inactive”.
On to GYRYTVHGIFEGVLWLTSAG, for which the amyloid nucleation score result is “inactive”.
Consider GYSSTRNLAA, for which the amyloid nucleation score result is “inactive”.
As for HAFEYVFISVTYQFNVKVIV, the amyloid nucleation score result was “inactive”.
Take HAGNWPSGSGRMSATRRFGW: the amyloid nucleation score entry is “inactive”.
In the case of HAGVHWFERGSFHWMLFINY, the amyloid nucleation score result is “inactive”.
As for HCCFVWERRNACGMVSSWMT, the entry is “inactive”; as for HCFLRMWKLLRTYLQVVLET, “inactive”; as for HCSQLFESTYKRMSHISRDL, -0.56 ± 0.73.
Substance HCSWTSSAHEGPYAETGHWQ showed an amyloid nucleation score of 0.557 ± 0.24.
To HCYWLVGSWRYFTALFEGGL belongs “inactive”; to HDIDGCIVRKSLYNGRGPLL, “inactive”; to HDMVREVDPILFMTLFRGGF, -0.517 ± 1.2.
As for HDYYLLLLTATL, the amyloid nucleation score result was “inactive”.
Take HECKYFGVCGRSQGNRSWVA: the amyloid nucleation score result was “inactive”.
To HEIQGC belongs “inactive”; to HEVCS, “inactive”; to HEYSSKILMM, “inactive”.
As for HFHFLGCDSLGIVVGEWSDH, the figure is 0.94 ± 0.18; as for HFLFVMSCPKWAVRFLAFVD, “inactive”.
Regarding HFLMFMRIIWVLRCPQVESP, the amyloid nucleation score result was “inactive”.
Turning to HFLRRTDFYTANWA, the amyloid nucleation score result is “inactive”.
For the substance HFRYY, the amyloid nucleation score entry is “inactive”.
Take HFSLSG: the amyloid nucleation score result was “inactive”.
To HGFEIDTRTDSRQAVNCMCC belongs “inactive”; to HGHDNVEDTCLRFSPAGLST, “inactive”.
To HGIDKGLDVDETR belongs “inactive”.
Consider HGIGFDDVASG, for which the amyloid nucleation score is -0.045 ± 0.88.
To HGLRALLRSLSLYLVLCFTV belongs “inactive”; to HGNRVFYFELHSYPVLDSAM, 0.984 ± 0.17.
As for HGSAWHSISEVVTIIRACGF, the entry is “inactive”; as for HHIMIATLSG, 0.711 ± 0.12.
As for HHLNSYFRISFI, the amyloid nucleation score result was “inactive”.
With HILVKITR, the amyloid nucleation score amounted to 0.359 ± 0.71.
For the substance HITGNGPHLRYCARQVLWSL, the amyloid nucleation score result is “inactive”.
HIYIVKSVCILCIWPCGLTE yielded an amyloid nucleation score of 2.86 ± 0.058.
As to HKGALVWYFYCRANFADYLY, the amyloid nucleation score entry is “inactive”.
Turning to HLLPLYTKSIVGYTTNAIPN, the amyloid nucleation score entry is “inactive”.
Consider HLRCFKMKFNSHFLVWGAGA, for which the amyloid nucleation score entry is “inactive”.
HLRETCCRWDVLCVDSLLV: the amyloid nucleation score entry is “inactive”.
On to HLRVMLLCFREYWDYAIMAL, for which the amyloid nucleation score result is “inactive”.
As to HLVYWVIHDLYMTI, the amyloid nucleation score is 0.303 ± 0.33.
In the case of HMIGRCLVGIESYRW, the amyloid nucleation score entry is “inactive”.
For HMKPSMLYITVCRWFKFY, the amyloid nucleation score entry was “inactive”.
As to HMLHVWYFLGRQYANTFCYM, the amyloid nucleation score result is “inactive”.
Turning to HMRIGNESWVIGCQ, the amyloid nucleation score was 0.132 ± 0.75.
As to HMSQLTLYCCAKIRKVVPLL, the amyloid nucleation score entry is “inactive”.
Consider HNSCGGY, for which the amyloid nucleation score entry was “inactive”.
To HPCPK belongs “inactive”; to HPHTHVR, “inactive”; to HPSQIKKVAFHYVRICSKWL, “inactive”.
As for HPTFHSHDRGR, the entry is “inactive”; as for HPVKLILILIWPAFERSRCG, “inactive”.
For the substance HPVYMVSTRWRRGGSDWV, the amyloid nucleation score entry is “inactive”.
In turn, HQFFVVNSRDWLGHSSKFRF returned an amyloid nucleation score of 0.814 ± 0.12.
As for HQISVVCGTNMRNGCFRSLC, the entry is “inactive”; as for HQNSCDMLFRLSSTYLWGRA, “inactive”.
As for HQSNFGDMSLVSNGSFRKAK, the amyloid nucleation score result was “inactive”.
Turning to HRFAGTKVALYGVKLGGARY, the amyloid nucleation score result is “inactive”.
For HRGLWTKATSLYYPFEMWMV, the amyloid nucleation score result is “inactive”.
As to HRGYAAFFS, the amyloid nucleation score entry was “inactive”.
In turn, HRLCSHYVFTGCPSNMRQCF displayed an amyloid nucleation score of 0.083 ± 0.28.
As for HRPGFAGGHLWTVFKYVR, the amyloid nucleation score result was “inactive”.
To HRSRISTWMWG belongs “inactive”.
The substance HSATASFHAADWSLKFMDGP had an amyloid nucleation score of 0.326 ± 0.23.
Consider HSDVWSVRSGAYLLLYIQTM, for which the amyloid nucleation score result is “inactive”.
On to HSFIYVLDVLNVR, for which the amyloid nucleation score entry was “inactive”.
As for HSFTAMLICSAYASAARYLR, the entry is “inactive”.
As for HSFVSWTRLT, the entry is “inactive”.
With HSLLMCSMLLRFYVQYPICI, the amyloid nucleation score entry was “inactive”.
On to HSLVVPIPSPILRVLKE, for which the amyloid nucleation score result is “inactive”.
HSMNHFIWLVFKMVSYVACV: the amyloid nucleation score result is “inactive”.
HSRRHCFLVSWE: the amyloid nucleation score result is “inactive”.
The substance HSRYLMQLYVNSFSRFD gave an amyloid nucleation score of 1.28 ± 0.12.
Regarding HSVGWHFPLCFSTQMTLVRS, the amyloid nucleation score result was “inactive”.
HSVPLPMLYFHYNMILLMLL: the amyloid nucleation score entry was “inactive”.
Consider HSVWVYKHGLCDMWGGLTLI, for which the amyloid nucleation score entry was “inactive”.
In the case of HTHVSTTTGIFSDRICEW, the amyloid nucleation score entry was “inactive”.
Consider HTMAHWITKEAAFLI, for which the amyloid nucleation score result is “inactive”.
For the substance HTWTWDIII, the amyloid nucleation score worked out at 0.065 ± 0.23.
With HVFYPALI, the amyloid nucleation score entry was “inactive”.
For the substance HVGLRAKLTFLDRVYLSILS, the amyloid nucleation score result was “inactive”.
As for HVPYIHRIFIWTYK, the entry is “inactive”; as for HVQYLLHKFLTLVQMF, “inactive”; as for HVRDTKRVSLKRSTYADRGG, “inactive”.
Take HVTSVMIFIIASIMYVEIKY: the amyloid nucleation score stood at 0.339 ± 0.34.
Turning to HVYMGSFVPR, the amyloid nucleation score entry was “inactive”.
As to HWCVPL, the amyloid nucleation score result is “inactive”.
For HWCYRSFMTPAPPNLLPQPQ, the amyloid nucleation score entry is “inactive”.
With HWGWVTSIESVVRRFCNNFC, the amyloid nucleation score entry is “inactive”.
As for HWIISYQAGCFHLNTFKIMY, the entry is “inactive”.
Consider HYQHVFLAFNSVLQSPILRE, for which the amyloid nucleation score result was “inactive”.
For HYRDFPSRN, the amyloid nucleation score result was “inactive”.
Turning to HYVKPSSESRR, the amyloid nucleation score result is “inactive”.
Substance HYYINNTWMFKVYNRLLKRR had an amyloid nucleation score of 2.51 ± 0.057.
For IAAPRGMTDSRVVMRCLHVN, the amyloid nucleation score entry was “inactive”.
IALKGRAFAHEGCLRGRRGG: the amyloid nucleation score entry is “inactive”.
IALVMSIDVAVVLMYPSPQW returned an amyloid nucleation score of 0.381 ± 0.24.
In the case of IAQILDVQFSVHAIGVSRDM, the amyloid nucleation score entry is “inactive”.
As to ICDHVYVGNFLTQA, the amyloid nucleation score result was “inactive”.
Consider ICELLRFDPMLTCFRM, for which the amyloid nucleation score was determined as 0.77 ± 0.2.
On to ICGRTYVRVT, for which the amyloid nucleation score was -0.775 ± 1.1.
As to ICLDKITDAIYMDYNRAFSC, the amyloid nucleation score result is “inactive”.
On to ICLYLRQVKLIAGAERKKVQ, for which the amyloid nucleation score result is “inactive”.
With ICMYRRLRISCVLAYRFRHF, the amyloid nucleation score entry is “inactive”.
Consider ICPWDIQRINMLMGRVDWLR, for which the amyloid nucleation score entry is “inactive”.
ICQWDVKMPRCATG: the amyloid nucleation score entry is “inactive”.
Take ICTPENT: the amyloid nucleation score is -0.303 ± 0.9.
To ICYSNDSLYMLLESS belongs “inactive”; to IDELLSLQLHRIHKLLEMHG, “inactive”.
Regarding IDGSYAFSKKPDPNSVKYIM, the amyloid nucleation score entry was “inactive”.
As for IDLRVTRNIFQSATLLMFFW, the entry is “inactive”.
IDRLLLNTKYIVQGLPNWTK: the amyloid nucleation score result is “inactive”.
For the substance IDWLKRVVEVTSVEGAYCWW, the amyloid nucleation score result is “inactive”.
As for IERSNFLQCPVRGLRNTARV, the amyloid nucleation score was found to be 0.526 ± 0.26.
On to IEVGYITWKSARVWATNSSH, for which the amyloid nucleation score entry was “inactive”.
Consider IEVKDSVGVRCFYTYSPTCQ, for which the amyloid nucleation score entry is “inactive”.
